Data published in patent US20150359849A1, “METHODS OF INCREASING NEURONAL CONNECTIVITY AND/OR TREATING A NEURODEGENERATIVE CONDITION” (PRESIDENT AND FELLOWS OF HARVARD COLLEGE, priority 2013, published 2015).

What was measured:
Assay type in all cases: cell-based
[1] = tested on: human primary neuronal cultures; assay: neuronal connectivity assay: human primary neuronal cultures fixed and stained for dendritic and synaptic markers
Protocol: FIGS. 3A-3E are experimental data showing that osteocrin promotes human neuronal connectivity. FIGS. 3A-3D are fluorescent images of primary human neurons fixed and immunostained with neuronal and synaptic markers, e.g., microtubule-associated protein 2 (MAP2), postsynaptic density protein-95 (PSD95) and synapsin after cultured for about 10 days in vitro with and without recombinant OSTN (˜50 ng/mL). […] FIG. 3E is a bar graph showing quantification results of excitatory synapse number in human neuronal cultures with increasing concentrations (˜0.5-˜50 ng/mL) of recombinant OSTN. In particular, the human neuronal cultures were treated with recombinant OSTN at a concentration of ˜0.5 ng/mL, ˜5 ng/mL, or ˜50 ng/mL. The data are represented as mean±SEM from n=5.
No role has previously been described for OSTN in nervous system development or particularly human nervous system development; however, OSTN has been reported to be secreted from bone-forming cells to promote the proliferation of bone precursors. In order to assess the roles of OSTN in human neuronal function, human primary neuronal cultures were treated with increasing concentrations of an osteocrin-inducing agent, e.g., but not limited to, a recombinant human OSTN protein. After about 6 days, samples were fixed and stained for neuronal markers, e.g., dendritic and/or synaptic markers, to examine effects on neuronal connectivity (FIGS. 3A-3D). Neuronal excitatory synaptic connections can be assayed by any methods known in the art, e.g., by quantifying the density of closely apposed puncta labeling pre- and post-synaptic markers along neuronal dendrites.

primary human neurons = assay: human axonal growth assay in microfluidic chambers
Protocol: FIGS. 5A-5G are experimental data showing that osteocrin promotes human axonal growth. FIG. 5A is a schematic diagram of microfluidic chambers, e.g., for use in a human axonal growth assay. The bracket denotes the area where images were approximately acquired. In FIGS. 5B-5E, primary human neurons were cultured for 21 days in vitro in the microfluidic chamber with (FIG. 5C and FIG. 5E) and without (FIG. 5B and FIG. 5D) recombinant OSTN (˜100 ng/ml). FIGS. 5B-5C are brightfield images of axons imaged live by a bright-field microscope. FIGS. 5D-5E are fluorescent images of axons fixed and immunostained with axonal marker Neurofilament (NF). FIG. 5F is a quantitative bar graph showing axonal length extension of OSTN-treated neurons, normalized to the control experiment. FIG. 5G is a quantitative bar graph showing the number of MAP2-positive neurons per measured area inside the chamber. The data are represented as mean±SEM.
To assess the effect of OSTN on axonal outgrowth, a human axonal growth assay was developed by using microfluidic chambers (e.g., obtained from Xona Microfluidics, Temecula, Calif.) (FIG. 5A). In this assay, primary human neurons were seeded in the presence or absence of OSTN into the microfluidic chambers and cultured for a sufficient period of time to allow their axons grow through microchannels that were designed to be small enough to only allow axons, not dendrites, to pass through. For example, after about 21 days, axons were imaged both live (FIGS. 5B-5C) and after stained with an axonal marker, e.g., an anti-neurofilament antibody (FIGS. 5D-5E). Human axons grew slowly in the absence of OSTN and at DIV21 only few axonal processes were visible (FIGS. 5B and 5D). […] These findings shown that human-specific activity-regulated factor OSTN is a regulator of the axonal growth in human neurons.

human neurons = assay: neuronal survival assay: number of MAP2 positive cells; settings: about 80,000 to about 130,000 cells/cm^2, where neighboring neurons could provide trophic support
Protocol: FIGS. 4A-4C are experimental data showing that osteocrin promotes human neuronal survival. FIGS. 4A-4B are fluorescent images showing culture of primary human neurons with or without recombinant OSTN. In FIGS. 4A-4B, primary human neurons were cultured for 10 days in vitro with and without recombinant OSTN (˜50 ng/ml), fixed and immunostained with neuronal marker MAP2 and nuclear marker DAPI. FIG. 4C is a quantitative bar graph showing the number of MAP2 positive neurons per measured area at DIV10 in human neuronal cultures with or without recombinant OSTN. The data are represented as mean±SEM. As used herein throughout the specification, the abbreviation “DIV” stands for Day In Vitro, i.e., the number of days neurons have grown in culture.
As presented herein, the inventors discovered OSTN as a human-specific activity-regulated secreted molecule. […] Neurons were grown, e.g., at a density of about 40,000 cells/cm^2, in the presence or absence of OSTN (e.g., ˜50 ng/ml) for a period of time, e.g., about 6 days between DIV4 to DIV10. After the period of time (e.g., about 6 days), samples were fixed and stained for dendritic and/or nuclear markers (FIGS. 4A-4B). Neuronal survival was assayed, for example, by quantifying the number of MAP2 positive cells after the neurons were cultured with or without OSTN for a pre-determined period of time (e.g., detected at DIV10). […]

osteocrin expression = assay: induction of osteocrin expression in human cultures; settings: addition to human cultures
[2] = recombinant OSTN ~50 ng/mL, about 10 days in vitro

Molecule | dendritic density following OSTN treatment ([1]; data not shown) | total dendritic length following OSTN treatment ([1]; data not shown) | expression of PSD95 and synapsin (immunostaining) compared to control neurons [1, 2] | network of microtubules (MAP2 immunostaining) compared to control neurons [1, 2] | increase in excitatory synapse density as compared to mock-treated controls ([1]; recombinant human OSTN protein, increasing concentrations (~0.5-~50 ng/mL), after about 6 days, closely apposed pre- and post-synaptic puncta along dendrites) | number of neuronal cells (MAP2-positive) in the chambers with OSTN treatment (primary human neurons; recombinant OSTN ~100 ng/ml, DIV21) | axonal growth in the presence of OSTN (primary human neurons; recombinant OSTN ~100 ng/ml, about 21 days in vitro, imaged live and neurofilament stained) | increase in axonal growth of human neurons as compared to neural cells without treatment of OSTN (primary human neurons; summary statement in the description) | significant increase in neuronal survival at standard or higher densities (human neurons) | effect on induction of osteocrin expression (osteocrin expression)
OSTN: recombinant human osteocrin protein; a secreted protein produced by cells of the osteoblast lineage (protein, listed as Homo sapiens) MLDWRLASAHFILAVTLTLWSSGKVLSVDVTTTEAFDSGVIDVQSTPTVREEKSATDLTAKLLLLDELVSLENDVIETKKKRSFSGFGSPLDRLSAGSVDHKGKQRKVVDHPKRRFGIPMDRIGRNRLSNSRG | Increases were also observed | Increases were also observed | expressed higher levels of PSD95 and synapsins | formed a denser network of microtubules | at least 3 fold | did not appear to change | neurons grow axons of dramatic lengths and complexities | at least 2 fold | not observed | 
BDNF: a neuronal activity-regulated secreted factor (protein, UniProt P23560 19-247, looked up) Neurotrophic factor BDNF …: APMKEANIRGQGGLAYPGVRTHGTLESVNGPKAGSRGLTSLADTFEHVIEELLDEDQKVRPNEENNKDADLYTSRVMLSSQVPLEPPLLFLLEEYKNYLDAANMSMRVRRHSDPARRGELSVCDSISEWVTAADKKTAVDMSGGTVTVLEKVPVSKGQLKQYFYETKCNPMGYTKEGCRGIDKRHWNSQCRTTQSYVRALTMDSKKRIGWRFIRIDTSCVCTLTIKRGR |  |  |  |  |  |  |  |  |  | does not have any significant effect
